Test results published in patent US20130012432A1 (Novo Nordisk, published 2013).
Positions of bridges follow the written chain, without caps; N, C: chain ends. Non-standard residues stand in square brackets, D forms with d. Groups on a side chain read outwards from the residue. Primed or numbered codes have the meaning given here. *: point of attachment. X2 = (2-(2-(16-(tetrazol-5-yl)hexadecanoylamino)ethoxy)ethoxy)acetyl, O=C(CCCCCCCCCCCCCCCc1nn[nH]n1)NCCOCCOCC(=O)*; X5 = NH(2-(2-(2-(17-carboxyheptadecanoylamino)ethoxy)ethoxy)ethyl), O=C(O)CCCCCCCCCCCCCCCCC(=O)NCCOCCOCCN*; X6 = (2-(2-(17-carboxyheptadecanoylamino)ethoxy)ethoxy)acetyl, O=C(O)CCCCCCCCCCCCCCCCC(=O)NCCOCCOCC(=O)*; X3 = (2-(2-(15-carboxypentadecanoylamino)ethoxy)ethoxy)acetyl, O=C(O)CCCCCCCCCCCCCCC(=O)NCCOCCOCC(=O)*; X4 = (2-(2-(16-carboxyhexadecanoylamino)ethoxy)ethoxy)acetyl, O=C(O)CCCCCCCCCCCCCCCC(=O)NCCOCCOCC(=O)*; biscarboxymethyl = Lys(biscarboxymethyl) = Nepsilon-bis(carboxymethyl)-L-lysine; bis(carboxymethyl) = Lys(biscarboxymethyl) = N6-bis(carboxymethyl)-L-lysine; Palmitoyl(16-(5-tetrazolyl)) = O=C(CCCCCCCCCCCCCCCc1nnn[nH]1)*; biscarboxymethyl(3) = Nepsilon-bis(carboxymethyl) on Lys; biscarboxymethyl″ = N6-bis(carboxymethyl) on L-lysine; Lys(CH2CO2H)2 = N[C@@H](CCCCN(CC(=O)O)CC(=O)O)C(=O)O; C18 diacid = O=C(O)CCCCCCCCCCCCCCCCC(=O)*; C17 diacid = O=C(O)CCCCCCCCCCCCCCCC(=O)*; C16 diacid = O=C(O)CCCCCCCCCCCCCCC(=O)*; Hyp = O=C(O)[C@@H]1C[C@@H](O)CN1; NTA = O=C(O)CN(CC(=O)O)CC(=O)*; hCys = N[C@@H](CCS)C(=O)O; Orn = NCCC[C@H](N)C(=O)O; Dab = NCC[C@H](N)C(=O)O; Dap = NC[C@H](N)C(=O)O; AEEA = NCCOCCOCC(=O)O

What was measured:
human MC4 receptor = target: T1, human MC4 receptor (human, UniProt P32245 1-332); assay: 125I-NDP-α-MSH displacement, BHK-human MC4 membranes (Assay V);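 also: Filter-retained radioactivity read by gamma counting, with affinity obtained through non-linear regression fitting of the binding curves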
T1 construct: whole, on cells; Assayed as membranes of BHK cells stably expressing the receptor; also called melanocortin receptor subtype 4; melanocortin receptor 4
T1 sequence (P32245 whole entry): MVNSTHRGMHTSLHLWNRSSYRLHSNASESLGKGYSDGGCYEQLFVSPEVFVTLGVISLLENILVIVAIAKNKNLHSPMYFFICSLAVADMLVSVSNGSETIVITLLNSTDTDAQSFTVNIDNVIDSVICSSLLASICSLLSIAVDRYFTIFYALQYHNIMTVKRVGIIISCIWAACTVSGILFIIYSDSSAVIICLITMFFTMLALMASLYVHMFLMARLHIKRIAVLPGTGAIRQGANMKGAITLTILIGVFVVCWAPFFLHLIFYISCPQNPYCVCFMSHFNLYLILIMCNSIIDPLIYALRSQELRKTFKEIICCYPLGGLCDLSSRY
Protocol: The membranes were prepared from frozen or fresh cells that were homogenized in 20 mM HEPES pH 7.1, 5 mM MgCl₂ and 1 mg/ml bacitracin and centrifuged at 15000 rpm at 4° C., 10 min in a Sorvall RC 5B plus, SS-34 rotor. The supernatant was discarded, and the pellets were re-suspended in buffer, homogenized and centrifuged two more times. The final pellets were resuspended in the buffer mentioned above, and the protein concentration was measured and adjusted with buffer to 14 to 17 mg/ml and the membrane preparation were kept at −80° C. until assay. The assay was run directly on a dilution of this cell membrane suspension, without any further preparation. The BHK cell membranes are kept at −80° C. until assay, and the assay is run directly on a dilution of this cell membrane suspension, without further preparation. The suspension is diluted to give maximally 10% specific binding, i.e. to approx. 50-100 fold dilution. […] Test compounds were dissolved in DMSO and diluted in binding buffer. Radiolabelled ligand and membranes were diluted in binding buffer. The incubation was stopped by dilution with 2×100 μl ice-cold 0.9% NaCl. The radioactivity retained on the filters was counted using a Cobra II auto gamma counter.
(§1) The data were analysed by non-linear regression analysis of binding curves, using the Windows™ program GraphPad™ Prism (GraphPad Software, USA).

MC1 receptor = target: T2, MC1 receptor (UniProt Q01726 1-317, limits assumed); assay: 125I-NDP-α-MSH displacement, BHK-MC1 membranes (Assay IV);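 also: membrane incubations stopped by filtration, retained radioactivity counted, Ki fitted by nonlinear regression to binding curves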
T2 construct: whole, on cells; also called melanocortin receptor subtype 1; melanocortin receptor 1
T2 sequence (Q01726 whole entry): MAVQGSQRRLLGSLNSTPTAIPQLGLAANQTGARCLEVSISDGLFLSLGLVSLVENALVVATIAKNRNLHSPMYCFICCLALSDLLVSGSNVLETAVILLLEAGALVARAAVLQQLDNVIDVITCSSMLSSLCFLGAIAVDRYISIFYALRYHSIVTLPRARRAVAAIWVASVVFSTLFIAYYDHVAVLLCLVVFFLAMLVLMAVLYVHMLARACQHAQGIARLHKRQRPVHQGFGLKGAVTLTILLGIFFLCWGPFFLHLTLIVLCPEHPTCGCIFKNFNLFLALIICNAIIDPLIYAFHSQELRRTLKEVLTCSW
Protocol: The MC1 receptor binding assay was performed on BHK cell membranes stably expressing the MC1 receptor. […] Test compounds were dissolved in DMSO. […] Alternatively, HSA may be substituted with ovalbumin. The samples were incubated at 30° C. for 90 min. in Costar round-bottom microtiter plates. Incubation was terminated by filtration on a Packard harvester filtermate. […] The filters were washed with ice-cold 0.9% NaCl 8-10 times. […] The plates were counted in a Topcounter (1 min/well).
as §1

Binder | Ki (human MC4 receptor) | Ki (MC1 receptor)
Ac-EH[dF]RWK[Hyp][Hyp]RD[Lys(CH2CO2H)2]K([AEEA-Palmitoyl(16-(5-tetrazolyl))])-NH2 (lactam 1-6; SMILES CC(=O)N[C@H]1CCC(=O)NCCCC[C@@H](C(=O)N2C[C@H](O)C[C@H]2C(=O)N2C[C@H](O)C[C@H]2C(=O)N[C@@H](CCCNC(=N)N)C(=O)N[C@@H](CC(=O)O)C(=O)N[C@@H](CCCCN(CC(=O)O)CC(=O)O)C(=O)N[C@@H](CCCCNC(=O)COCCOCCNC(=O)CCCCCCCCCCCCCCCc2nnn[nH]2)C(N)=O)NC(=O)[C@H](Cc2c[nH]c3ccccc23)NC(=O)[C@H](CCCNC(=N)N)NC(=O)[C@@H](Cc2ccccc2)NC(=O)[C@H](Cc2c[nH]cn2)NC1=O) | 21 nM | –
Ac-EH[dF]RW[Orn][Hyp][Hyp]RDK(biscarboxymethyl)K(X2)-NH2 (lactam 1-6) | 3.25 nM | 7230 nM
Ac-KH[dF]RWDPPHS[Lys(CH2CO2H)2]SSEK([AEEA-C17 diacid])-NH2 (lactam 1-6; SMILES CC(=O)N[C@H]1CCCCNC(=O)C[C@@H](C(=O)N2CCC[C@H]2C(=O)N2CCC[C@H]2C(=O)N[C@@H](Cc2c[nH]cn2)C(=O)N[C@@H](CO)C(=O)N[C@@H](CCCCN(CC(=O)O)CC(=O)O)C(=O)N[C@@H](CO)C(=O)N[C@@H](CO)C(=O)N[C@@H](CCC(=O)O)C(=O)N[C@@H](CCCCNC(=O)COCCOCCNC(=O)CCCCCCCCCCCCCCCC(=O)O)C(N)=O)NC(=O)[C@H](Cc2c[nH]c3ccccc23)NC(=O)[C@H](CCCNC(=N)N)NC(=O)[C@@H](Cc2ccccc2)NC(=O)[C@H](Cc2c[nH]cn2)NC1=O) | 14 nM | –
Ac-[Orn]H[dF]RWEPSSSEESSK([AEEA-C17 diacid])-NH2 (lactam 1-6; SMILES CC(=O)N[C@H]1CCCNC(=O)CC[C@@H](C(=O)N2CCC[C@H]2C(=O)N[C@@H](CO)C(=O)N[C@@H](CO)C(=O)N[C@@H](CO)C(=O)N[C@@H](CCC(=O)O)C(=O)N[C@@H](CCC(=O)O)C(=O)N[C@@H](CO)C(=O)N[C@@H](CO)C(=O)N[C@@H](CCCCNC(=O)COCCOCCNC(=O)CCCCCCCCCCCCCCCC(=O)O)C(N)=O)NC(=O)[C@H](Cc2c[nH]c3ccccc23)NC(=O)[C@H](CCCNC(=N)N)NC(=O)[C@@H](Cc2ccccc2)NC(=O)[C@H](Cc2c[nH]cn2)NC1=O) | 25 nM | –
Ac-EH[dF]RW[Dab][Hyp][Hyp]RDK(biscarboxymethyl(3))K([AEEA-Palmitoyl(16-(5-tetrazolyl))])-NH2 (lactam 1-6) | 105 nM | –
Ac-EH[dF]RW[Dap][Hyp][Hyp]RDK(biscarboxymethyl(3))K([AEEA-Palmitoyl(16-(5-tetrazolyl))])-NH2 (lactam 1-6) | 17 nM | –
Ac-[Dap]H[dF]RWDPPRDK(biscarboxymethyl(3))K([AEEA-Palmitoyl(16-(5-tetrazolyl))])-NH2 (lactam 1-6) | 5.16 nM | 1830 nM
Ac-[Orn]H[dF]RWDPPRDK(biscarboxymethyl)K(X2)-NH2 (lactam 1-6) | 0.85 nM | 2340 nM
Ac-[Dap]H[dF]RWEPPRDK(biscarboxymethyl(3))K([AEEA-Palmitoyl(16-(5-tetrazolyl))])-NH2 (lactam 1-6) | 0.7 nM | 3850 nM
Ac-[Orn]H[dF]RWDPPHEK(biscarboxymethyl)K(X3)-NH2 (lactam 1-6) | 3.4 nM | 8600 nM
Ac-[Orn]H[dF]RWDPPHEK(biscarboxymethyl)K(X6)-NH2 (lactam 1-6) | 1.8 nM | 7370 nM
Ac-[Orn]H[dF]RWDPPREK(biscarboxymethyl)K(X2)-NH2 (lactam 1-6) | 0.33 nM | 2770 nM
Ac-[Dap]H[dF]RWDPPRDK(NTA)K([AEEA-Palmitoyl(16-(5-tetrazolyl))])-NH2 (lactam 1-6; SMILES CC(=O)N[C@H]1CNC(=O)C[C@@H](C(=O)N2CCC[C@H]2C(=O)N2CCC[C@H]2C(=O)N[C@@H](CCCNC(=N)N)C(=O)N[C@@H](CC(=O)O)C(=O)N[C@@H](CCCCNC(=O)CN(CC(=O)O)CC(=O)O)C(=O)N[C@@H](CCCCNC(=O)COCCOCCNC(=O)CCCCCCCCCCCCCCCc2nnn[nH]2)C(N)=O)NC(=O)[C@H](Cc2c[nH]c3ccccc23)NC(=O)[C@H](CCCNC(=N)N)NC(=O)[C@@H](Cc2ccccc2)NC(=O)[C@H](Cc2c[nH]cn2)NC1=O) | 8.95 nM | 5550 nM
Ac-[Orn]H[dF]RWDPPHEK(biscarboxymethyl)K(X4)-NH2 (lactam 1-6) | 1.05 nM | 4830 nM
Ac-[Dab]H[dF]RWDPPRDK(biscarboxymethyl(3))K([AEEA-Palmitoyl(16-(5-tetrazolyl))])-NH2 (lactam 1-6) | 31 nM | 5740 nM
Ac-[Orn]H[dF]RWEPPRDK(bis(carboxymethyl))K([AEEA-Palmitoyl(16-(5-tetrazolyl))])-NH2 (lactam 1-6) | 3.53 nM | 433 nM
Ac-EH[dF]RWKPPRD[Lys(CH2CO2H)2]K([AEEA-Palmitoyl(16-(5-tetrazolyl))])-NH2 (lactam 1-6; SMILES CC(=O)N[C@H]1CCC(=O)NCCCC[C@@H](C(=O)N2CCC[C@H]2C(=O)N2CCC[C@H]2C(=O)N[C@@H](CCCNC(=N)N)C(=O)N[C@@H](CC(=O)O)C(=O)N[C@@H](CCCCN(CC(=O)O)CC(=O)O)C(=O)N[C@@H](CCCCNC(=O)COCCOCCNC(=O)CCCCCCCCCCCCCCCc2nnn[nH]2)C(N)=O)NC(=O)[C@H](Cc2c[nH]c3ccccc23)NC(=O)[C@H](CCCNC(=N)N)NC(=O)[C@@H](Cc2ccccc2)NC(=O)[C@H](Cc2c[nH]cn2)NC1=O) | 24 nM | –
Ac-[Orn]H[dF]RWDPPREK(biscarboxymethyl)SS-X5 (lactam 1-6) | 0.93 nM | 2500 nM
Ac-[hCys]H[dF]RWCSPHEK(bis(carboxymethyl))K([AEEA-C18 diacid])-NH2 (disulfide 1-6) | 0.55 nM | 442 nM
Ac-[hCys]S[dF]RWCPPKEK(biscarboxymethyl″)K(X2)-NH2 (disulfide 1-6) | 10 nM | 2060 nM
Ac-[hCys]H[dF]RWCSPKEK(bis(carboxymethyl))K([AEEA-C16 diacid])-NH2 (disulfide 1-6) | 3.43 nM | 169 nM
Ac-CEH[dF]RWGCPPKEEK([AEEA-C16 diacid])-NH2 (disulfide 1-8; SMILES CC(=O)N[C@H]1CSSC[C@@H](C(=O)N2CCC[C@H]2C(=O)N2CCC[C@H]2C(=O)N[C@@H](CCCCN)C(=O)N[C@@H](CCC(=O)O)C(=O)N[C@@H](CCC(=O)O)C(=O)N[C@@H](CCCCNC(=O)COCCOCCNC(=O)CCCCCCCCCCCCCCC(=O)O)C(N)=O)NC(=O)CNC(=O)[C@H](Cc2c[nH]c3ccccc23)NC(=O)[C@H](CCCNC(=N)N)NC(=O)[C@@H](Cc2ccccc2)NC(=O)[C@H](Cc2c[nH]cn2)NC(=O)[C@H](CCC(=O)O)NC1=O) | 6.2 nM | 7220 nM
Ac-[Orn]EH[dF]RWGDPSKEESSK(X4)-NH2 (lactam 1-8; SMILES CC(=O)N[C@H]1CCCNC(=O)C[C@@H](C(=O)N2CCC[C@H]2C(=O)N[C@@H](CO)C(=O)N[C@@H](CCCCN)C(=O)N[C@@H](CCC(=O)O)C(=O)N[C@@H](CCC(=O)O)C(=O)N[C@@H](CO)C(=O)N[C@@H](CO)C(=O)N[C@@H](CCCCNC(=O)COCCOCCNC(=O)CCCCCCCCCCCCCCCC(=O)O)C(N)=O)NC(=O)CNC(=O)[C@H](Cc2c[nH]c3ccccc23)NC(=O)[C@H](CCCNC(=N)N)NC(=O)[C@@H](Cc2ccccc2)NC(=O)[C@H](Cc2c[nH]cn2)NC(=O)[C@H](CCC(=O)O)NC1=O) | 125 nM | –
Ac-EH[dF]RW[Orn]PPRDK(biscarboxymethyl)K(X2)-NH2 (lactam 1-6) | 1.42 nM | 5240 nM
Ac-[Orn]H[dF]RWDPSSSK(biscarboxymethyl)SSK(X3)-NH2 (lactam 1-6) | 1.2 nM | 3890 nM
